# Laboratory results as given in the supplement of paper PMC12042874.
# ± gives the uncertainty stated by the source.
# Assay: amyloid nucleation score (Sup35N fusion, yeast selection) (log enrichment); library NNK1; higher = more nucleation; inactive = no reads after selection
# How it was run: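 Plasmid inserts were Illumina-sequenced at input and output from psi-negative yeast expressing Sup35N fused to peptides of 20 random codons. The yeast were induced with 100 μM copper sulfate for 24 hours and grown 7 days at 30°C on medium lacking adenine and uracil, and sequences with under 100 input reads were excluded. Nucleation score is the DiMSum log enrichment of output over input reads, centred on the mode score of non-aggregating sequences.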
row,Substance,amyloid nucleation score
1,RVSVVQFMSKVPTRLMVIEW,0.705 ± 0.65
2,AYSSARHFFTLTFKEIRFGR,0.141 ± 1.4
3,PLLEATNCDLHGLVRLLMRF,0.651 ± 0.72
4,MDRALQRSWRLGLRPGEGGS,-0.455 ± 0.62
5,HRGVLQLR,0.764 ± 0.84
6,ECMGGVAIARNFATI,-1.11 ± 2.7
7,TCPWWTVIVFTSESMP,inactive
8,MGVFRLNHSQTLRTGQSVEF,-1.18 ± 2.1
9,KLLSTDNLYVQSYLFEDCNR,-0.544 ± 0.59
10,DKDDEIY,1.42 ± 0.76
11,IQSIIW,-0.418 ± 0.5
12,FLENSTTSYNCYFNARWKCS,0.389 ± 0.35
13,GFKVVDTAWFL,-0.116 ± 0.27
14,AYWSGTYEGEWYLVDRQFYW,0.542 ± 1
15,SPWFAHITPRVIMEERH,-1.18 ± 0.79
16,KANPDHIPRRLDYRGSGPSR,-0.482 ± 0.94
17,ERFVYALIEFCIETERLHTE,-0.459 ± 0.45
18,FLFAMFNSISMKSAKLKWNR,3.91 ± 0.086
19,LGIYNGEASRWYRESTPAQ,-0.443 ± 0.92
20,PCINRFHGIGFHCRLWTVYV,0.816 ± 0.98
21,DFRAIS,0.576 ± 0.79
22,SLPQKGIHWRQYL,0.368 ± 0.61
23,YVGSRSAVNIGIICGSRLNE,-0.739 ± 1.5
24,WNELCHQLNWCICRVAGFVK,-0.637 ± 0.62
25,TLCCVWSNSFLRVTHDVYKA,8.518 ± 0.057

row,Substance,amyloid nucleation score
1,FAEENTSKFFSRKGEVCYMF,-0.113 ± 0.9
2,NGPLHSYYTVWGCMYCLLML,3.06 ± 0.23
3,CSLLSYK,-1.63 ± 2.7
4,CGWSSMIVP,0.343 ± 0.63
5,VSSGHLA,0.032 ± 0.42
6,GGFIR,-0.516 ± 1.1
7,LSWVQSLKACNI,1.45 ± 0.4
8,NTLCLHDFFHGLILWLSHQA,1.01 ± 0.49
9,DDGPLWRMKEMCLVTVRGSE,0.91 ± 0.29
10,IPNSRLLNI,0.996 ± 0.57
11,CTHRSFFSSNAIAVRLDLSW,inactive
12,WDRASYIEYRSFIEWRRLPK,-0.006 ± 0.55
13,SSGYSGSCVNINWC,6.412 ± 0.045
14,LCGIVRKILQTSKRSR,0.063 ± 0.49
15,AKIWVWSWWY,0.039 ± 0.47
16,LFYDDEES,inactive
17,SIYCGDTQDVVPIVSHLSNL,0.187 ± 0.29
18,TVRGCRCLAFPWFNG,0.5 ± 0.48
19,YLIWLLGFANILYHYTL,inactive
20,RACDNMYHYRCLLRSTEHHQ,-0.185 ± 0.22
21,IGIPVLGMNINYCFLR,0.931 ± 0.29
22,VAQLFHWADLYNTSYYVSCV,3.38 ± 0.089
23,KDALDHHLIMLRGYVVLQS,-0.891 ± 0.59
24,ALTVTCFLVPGSYIIHVGMK,-0.332 ± 0.37
25,LWNCKIVVWSFIGSVCTTGK,2.29 ± 0.19

row,Substance,amyloid nucleation score
1,TIFIAMDFNRVGKLFYRN,5.368 ± 0.05
2,RLRLIFTCMR,3.08 ± 0.11
3,FLRPTGHSGCQFGAMSSKKG,0.464 ± 1.2
4,DLIWPRTRYRSTVD,inactive
5,YYSHIIQAGCWVVYRDVRLF,0.52 ± 0.88
6,RTMCRFPYGCMTRSYVSG,0.159 ± 0.38
7,MTSYGSFRKATWNDWISNMS,-0.393 ± 0.41
8,CYRLWHGCKMGIPVQYLYGS,-0.113 ± 0.36
9,SNLVCII,0.211 ± 0.59
10,WVINFVGKTCDTIDP,inactive
11,GMWCLFRKCSVA,inactive
12,YAFRSRHRSFSFIGTLMVFD,0.55 ± 0.5
13,STLYLLHGRNSHTGRSFSRH,-1.01 ± 0.66
14,YILDGESAYFVLLYEKVYFS,-0.403 ± 0.53
15,FWCMALK,-1.05 ± 2.4
16,FGHKPCLATQLTGPTKRCAA,0.959 ± 1.1
17,KLLIP,-1.17 ± 0.58
18,MRISFAITCTVTN,0.248 ± 0.28
19,LFLLSTSESCFQCATPANDN,-0.222 ± 0.59
20,VDEETMCSFLSLGKVY,0.474 ± 0.69
21,VGNNKLFKTPMKDRELMICL,-0.184 ± 0.48
22,DSVYRLFICIVISALTGWWK,0.258 ± 0.62
23,DRVANNLMD,-0.344 ± 0.26
24,ASFVSLVSAPESFNGFAVQN,-0.006 ± 0.48
25,STRFPRLDALNGKKFYRKNT,0.157 ± 0.66

row,Substance,amyloid nucleation score
1,YQDAGVLGRLPHLFTNGSFT,0.021 ± 0.93
2,ALIFLGYMLRRRYWIYRLLS,0.07 ± 0.58
3,SDVEEGLRL,1.08 ± 0.57
4,MDKEESRCVELSLMSVSVMG,1.35 ± 0.79
5,WVRGSYPPDAHR,1.86 ± 0.29
6,RSWPSCNCVAKANMCFARSL,-0.521 ± 0.39
7,VILFNSNTEYQKLEQLLELW,0.153 ± 0.23
8,LAPGGDWYY,inactive
9,GNCWYV,-0.16 ± 0.31
10,DHFKG,-0.044 ± 0.84
11,MRITILYYLGKQNRSFWWFC,0.108 ± 0.35
12,EIRWSHIFERWV,0.628 ± 0.38
13,HMSDNGLSSMKRVYVVYPTT,-0.049 ± 0.23
14,CLAGLYNCGGR,0.679 ± 0.65
15,YKMYWISVAVLKRYNLLHQS,-0.111 ± 0.44
16,NESDI,0.392 ± 0.26
17,YAKVSAIERRCWVMSVTYPD,0.171 ± 0.28
18,LVELNIGTTLCWQMRLRNVG,-0.037 ± 1.7
19,QNWMPRHLTITLNDIRLYL,4.95 ± 0.12
20,WPNTPSVTKWTYLFVLHPRM,-0.854 ± 0.95
21,GWYSFLPSRNYFK,4.92 ± 0.072
22,SIGNKYKSIVWYFKCCLANL,5.97 ± 0.066
23,YFVMITCFYVILL,-0.126 ± 0.2
24,HIFWYCHMFPVVMASIIINS,0.637 ± 0.59
25,TDPRNNACVFYVCYYTSCWD,0.923 ± 0.66

row,Substance,amyloid nucleation score
1,KYYMSLDFWGHALH,2.76 ± 0.15
2,SQLVHERNSVGFEIVWMNHL,-0.249 ± 1.7
3,LHKIHNAIDILS,0.504 ± 0.56
4,TFFVVCKSTLILYEI,-0.186 ± 0.52
5,SWCHFVCLYPKHVFSVVSST,0.562 ± 1.2
6,TPRCLGERTISGISFYKV,-1.04 ± 0.55
7,NMVSLMVDSELTFVSLICLE,3.18 ± 0.064
8,HWVLDWQAQVRMPRNSVSGL,inactive
9,GVGLDCFDRTWFWMFQTPQC,0.483 ± 0.35
10,TFYKYVGSTISPSFGFRYVG,-0.052 ± 0.38
11,MVVFDRRGLSYPVS,0.556 ± 0.52
12,CLSSSH,-0.322 ± 0.38
13,TFISSMPNQMIFPKGGSRGC,inactive
14,VNRYFVFVSVMIYMLCESRF,0.295 ± 0.75
15,GTIWYITLAGRFNDVIIYTM,2.4 ± 0.077
16,HVYLTWTGLVGLKWCSGCSA,-0.856 ± 2.4
17,PYIVKVCGCDPLVHLFI,0.608 ± 0.23
18,VGFGPVWTRPYNTWYNYGKS,0.514 ± 0.66
19,YLFMNRGTVSWRSVYDRV,0.104 ± 0.42
20,LLLYLTLAIGSRLCRELPQR,0.523 ± 0.43
21,LHSSMNCRWIHTL,0.618 ± 0.47
22,CWWRV,-0.761 ± 0.83
23,MWELRFVLCLMIHEFRRWHE,-0.056 ± 0.64
24,EVSLVVYTYVF,0.697 ± 0.69
25,ERLYLSRYSMVIFVGLMCKS,-0.145 ± 0.61

row,Substance,amyloid nucleation score
1,NEFTFSYKYGRHSGRSLKRR,2.32 ± 0.28
2,VEAMLTEPWRWH,-0.522 ± 1.7
3,ASNAARLLPDRISGSEAF,0.591 ± 0.71
4,CFVVHMSKEFYGRYFVRRIN,inactive
5,GLAWTYLRPW,0.143 ± 0.32
6,GLSGPRRQMSYMGWQRVRF,-0.247 ± 1.1
7,SRNAVVVVVQTYMDMTSCNT,6.37 ± 0.068
8,TIDVCDSHLMAYTVDWNCVW,0.505 ± 0.62
9,QMKAVLRLRINICCPQVRGT,4.66 ± 0.1
10,VNAIYDSWLSL,inactive
11,AFMSRVPFSHCIKSGGLQGT,0.19 ± 0.49
12,VAFLTKNCYEFDDTVRTCAV,-0.569 ± 0.42
13,CSSPRTTLEYWNCFFDHWWS,2.64 ± 0.2
14,LHYCTCSIRSIF,0.325 ± 0.6
15,SIRLVLRFLTA,-0.166 ± 0.46
16,GYHSKFRWVLLFVVTSASGE,inactive
17,IVMCEAYFK,inactive
18,LFEGHLTSISEPGVVDRSIR,-0.573 ± 1.7
19,NKIGRAFVTSYGLRIHSGAG,-0.32 ± 0.76
20,SRWTFSNRAFYRTGAWA,0.235 ± 0.68
21,VLGMCGTRYIDFF,3.12 ± 0.085
22,ALMDTCSVSSARGHDPCNRP,-0.413 ± 0.78
23,CSSFAQ,0.549 ± 0.31
24,KCFRYCKKNSNWLDCRLQIW,-1.26 ± 2.1
25,NSPGYDQVNAYVGFKRRTMS,0.128 ± 0.64

row,Substance,amyloid nucleation score
1,VELGRLIPPEHETQDLRSGW,0.258 ± 0.46
2,HVIQKSN,-0.988 ± 0.5
3,YLRVNAHMLDYSF,-0.513 ± 1
4,LKLGYMNLLISDRCAVIERY,0.969 ± 0.81
5,YKSLDGF,0.704 ± 0.93
6,YGNWFYIFFS,6.471 ± 0.054
7,ISINLRLVRHRGWGNISCWR,2.2 ± 0.33
8,RYVSVTGYDAQCRYCDKGTG,-0.326 ± 0.44
9,FINHKHKQDQVI,1.48 ± 0.49
10,LRIDFGDATSVGRRRFMCTV,-0.199 ± 1.5
11,TVISV,-1.47 ± 0.5
12,SFDKARRARGRSLAWML,0.072 ± 0.54
13,FFVVELFVSHKLRLYRVRFG,0.412 ± 0.62
14,LATFVWPGHGRV,1.65 ± 0.14
15,NVTNQCMLW,0.509 ± 0.33
16,TMSHCVRRCGVMGGVVAFKG,-0.031 ± 0.38
17,RSVSRRGYVGAFPSQVWLGL,0.214 ± 0.77
18,VRCNC,0.261 ± 0.5
19,ENVGRTLAYIWMVWLSSQML,1.87 ± 0.67
20,GFYGCYSYVVLGGRVEP,-1.02 ± 2.4
21,GSKKYQIMSVSELKVQCCGS,0.445 ± 0.34
22,IMEGR,5.73 ± 0.1
23,WHRRLGNMFKIASRTELRMG,-0.672 ± 1.1
24,LIPSRFMVNGDTIL,0.971 ± 0.28
